Numbering of substitutions follows the chain as printed.
B1: cr540 (nucleic acid)
guide: GTTTAAGAGCTAAGCTGGAAACAGCATAGCAACTTTAAATAATGCTAGTCAGTTATCAACTTGAAAAAGTGGCACCGAGTCGGTGCT
modifications: listed as DNA, chemistry not fully specified
B2: cr990 (nucleic acid)
guide: B1 guide with G29T, C33G, T34C, T43G, A51C, C57G
modifications: listed as DNA, chemistry not fully specified
B3: cr925 (nucleic acid)
guide: B1 guide with C33G, T43G, A51C, A59T, T61G, T62A, A67T, A68C, T70A
modifications: listed as DNA, chemistry not fully specified
B4: cr797 (nucleic acid)
guide: B1 guide with C33G, T43G, A51C, T54G
modifications: listed as DNA, chemistry not fully specified
B5: cr434 (nucleic acid)
guide: B1 guide with C33G, T43G, A51C, G63C, A65T
modifications: listed as DNA, chemistry not fully specified
B6: cr551 (nucleic acid)
guide: B1 guide with A26T, C33G, T43G, A51C
modifications: listed as DNA, chemistry not fully specified
B7: cr790 (nucleic acid)
guide: B1 guide with T43G, A51C, G77A, C81T
modifications: listed as DNA, chemistry not fully specified
B8: cr565 (nucleic acid)
guide: B1 guide with C33G, T43G, A51C, T61G, T62C, A67G, A68C
modifications: listed as DNA, chemistry not fully specified
B9: cr858 (nucleic acid)
guide: B1 guide with A20G, C33G, T43G, A51C
modifications: listed as DNA, chemistry not fully specified
B10: cr948 (nucleic acid)
guide: B1 guide with C33G, T43G, A51C, A67G
modifications: listed as DNA, chemistry not fully specified
B11: cr118 (nucleic acid)
guide: B1 guide with A23G, C33G, T43G, A51C
modifications: listed as DNA, chemistry not fully specified
B12: cr610 (nucleic acid)
guide: B1 guide with C33G, T43G, A51C, C60G, T61A, A68T, G69C, G72A, C86T
modifications: listed as DNA, chemistry not fully specified
B13: cr600 (nucleic acid)
guide: B1 guide with C33G, T43G, A51C, C60G, A65G, G69C
modifications: listed as DNA, chemistry not fully specified
B14: cr444 (nucleic acid)
guide: B1 guide with C33G, T43G, A51C, A65C
modifications: listed as DNA, chemistry not fully specified
B15: cr561 (nucleic acid)
guide: B1 guide with C33G, T43G, A47T, A51C
modifications: listed as DNA, chemistry not fully specified
B16: cr345 (nucleic acid)
guide: B1 guide with A21C, C33G, T43G, A51C
modifications: listed as DNA, chemistry not fully specified
B17: cr888 (nucleic acid)
guide: B1 guide with C33G, T43G, A51C, G63T, A65C
modifications: listed as DNA, chemistry not fully specified
B18: cr019 (nucleic acid)
guide: B1 guide with G7C, C33G, T43G, A51C
modifications: listed as DNA, chemistry not fully specified
B19: cr334 (nucleic acid)
guide: B1 guide with C33G, T43G, A51C, C60G, T62G, A67C, G69C, G77A, C81T
modifications: listed as DNA, chemistry not fully specified
B20: cr934 (nucleic acid)
guide: B1 guide with C33G, T43G, A47T, A51C, T56C, G79T
modifications: listed as DNA, chemistry not fully specified
B21: cr412 (nucleic acid)
guide: B1 guide with C33G, T43G, A51C, C60G, G69C
modifications: listed as DNA, chemistry not fully specified
B22: cr140 (nucleic acid)
guide: B1 guide with C33G, T43G, A51C, C60T, T61C, A68G, G69A
modifications: listed as DNA, chemistry not fully specified
B23: cr323 (nucleic acid)
guide: B1 guide with A32G, C33G, T43G, A51C, A65C
modifications: listed as DNA, chemistry not fully specified
B24: cr978 (nucleic acid)
guide: B1 guide with C33G, T43G, A51C, C73A, C75A, G83T, G85T
modifications: listed as DNA, chemistry not fully specified
B25: cr884 (nucleic acid)
guide: B1 guide with C33G, T43G, A51C, A59C, T62A, A67T, T70G, G72T, C86A
modifications: listed as DNA, chemistry not fully specified
B26: cr801 (nucleic acid)
guide: B1 guide with C33G, T43G, A51C, A59G, T70C, C73A, C75G, G83C, G85T
modifications: listed as DNA, chemistry not fully specified
B27: cr710 (nucleic acid)
guide: B1 guide with C33G, T43G, A51C, C75G, G83C
modifications: listed as DNA, chemistry not fully specified
B28: cr020 (nucleic acid)
guide: B1 guide with G7T, C33G, T43G, A51C
modifications: listed as DNA, chemistry not fully specified
B29: cr929 (nucleic acid)
guide: B1 guide with C33G, T43G, A51C, G72T
modifications: listed as DNA, chemistry not fully specified
B30: cr896 (nucleic acid)
guide: B1 guide with C33G, T43G, A51C, C73A, A74C, T84G, G85T
modifications: listed as DNA, chemistry not fully specified

What follows are molecules tested on K562 CRISPRi cells (assay: Constant region variant library pooled growth screen, K562). Details: sgRNA constant region variants; activity relative to the original, un-modified constant region cr995.
Format: cell-based, human
In short: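 Growth screens in K562 CRISPRi cells were harvested 4-8 days post-selection at >2000× library coverage. Each variant's phenotype was referenced to the unmodified constant region with the same targeting sequence.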
B1 gave a Mean relative activity of −0.0122. For B2, the Mean relative activity was −0.0163. B3 showed a Mean relative activity of 1.084. In the case of B4, the Mean relative activity is reported as 1.027. B5 showed a Mean relative activity of 1.027. In the case of B6, the Mean relative activity is reported as −0.109. With B7 the Mean relative activity was −0.01697. B8 showed a Mean relative activity of 1.085.

Same assay, conditions: sgRNA constant region variants; relative to the original, un-modified constant region cr995 (= 1)
With B9 the Mean relative activity was 1.025. Molecule B10 has a Mean relative activity of 1.02. In the case of B11, the Mean relative activity is reported as 1.025. For B12, the Mean relative activity was 1.027. For B13, the Mean relative activity was 1.021. B14 gave a Mean relative activity of 1.023. Molecule B15 has a Mean relative activity of 1.021. With B16 the Mean relative activity was 1.021. For B17, the Mean relative activity was 1.02. In the case of B18, the Mean relative activity is reported as 1.019. B19 was tested, and the Mean relative activity was 1.025. With B20 the Mean relative activity was 1.024. B21 showed a Mean relative activity of 1.025. B22 showed a Mean relative activity of 1.023. With B23 the Mean relative activity was 1.02. With B24 the Mean relative activity was 1.021. B25 gave a Mean relative activity of 1.027. In the case of B26, the Mean relative activity is reported as 1.02. B27 showed a Mean relative activity of 1.021. B28 was tested, and the Mean relative activity was 1.02. Molecule B29 has a Mean relative activity of 1.025. With B30 the Mean relative activity was 1.025.
